Laboratory results: US20230346919A1

Molecular target: SARS-CoV-2 spike SΔ21 displayed on VSV-eGFP-SARS-CoV-2-SΔ21 particles (SARS-CoV-2 isolate Wuhan-Hu-1) (UniProt P0DTC2)
Test: cell-based or functional assay

Which EC50, neutralization of VSV-SARS-CoV-2-SΔ21 (GRNT, Vero E6 cells) does the source give for mAb S309 (antibody) here?
The EC50, neutralization of VSV-SARS-CoV-2-SΔ21 (GRNT, Vero E6 cells) was 0.067 µg/mL.
